Patent US20220273823A1, “THERANOSTIC CONJUGATES” (Ariel Scientific Innovations Ltd., priority 2019, published 2022)

Tests used:
SSTRs = assay: Competitive binding of 5-CLB and free octreotide to PANC-1 receptors (NIR fluorescence imaging); type: cell-based, human; details: 5-CLB 10 μM, Oct x1, x3, x10 molar excess, NIR channel, 60 min after incubation
Experimental: The specificity of 5-CLB towards PANC-1 cell line was supported also by a competitive binding of 5-CLB and commercially available octreotide to the PANC-1 receptors. In a series of experiments, PANC-1 cell line was incubated for 10 min in PBS buffer contained 5% DMSO with a constant concentration of 5-CLB (10 μM) and variable concentration of octreotide (×1, ×3 and ×10 molar excess) and washed out. Then the fluorescence images were taken in the NIR channel in 60 minutes after the incubation.
PANC-1 were incubated for 10 minutes at 37° C. in PB with 5-CLB (10 μM) and increasing concentrations of Oct (xl, x3 and x10 molar excess) and both compounds were washed out. Fluorescence images were taken at 60 min after the incubation and fluorescence intensities remaining in the cells were measured. […] At the next step, the ratiometric fluorescence monitoring of CLB release from the 5-CLB conjugate delivered into the PANC-1, has been conducted. The cells were incubated with 5-CLB for 10 min to allow accumulation of the compound, and fluorescence images were taken over time in two channels. The NIR channel enabled measurements of the signal from IRD dye conjugated with CLB (5-CLB) while the Red channel detected the signal from the RD fluorophore formed upon the CLB release. […]

[1] = Cleavage rates for IRD-CLB and 5-CLB in PB and cell medium (time-dependent emission spectra); type: in vitro ADME; details: pH 7.4, incubated at 37° C., read-out: drug release half-life τ1/2 (converted)
Experimental: (§1) The biodegradable ester linker (BL) in IRD-CLB and 5-CLB can be hydrolyzed to release free CLB and, accordingly, IRD turns into RD, which is accompanied by a noticeable change in the spectral properties. The time-dependent emission spectra were recorded in PB and CM (see, FIGS. 9A-D) using the excitation wavelengths 720 nm and 532 nm. The first one enabled monitoring of the decrease in the concentration of IRD-CLB and 5-CLB, while the second one—the increase in the concentration of RD and OctA-RD. Only the NIR fluorescence of IRD-CLB and 5-CLB was detected, when excited at 720 nm; and only the red fluorescence of RD and OctA-RD was detected, when excited at 532 nm.
Upon the hydrolytic cleavage, the NIR emission band (FNIR) related to IRD decreases and the red emission band (FRed) of RD increases (FIGS. 9A-D). Based on the time-dependent emission spectra, the drug cleavage profiles for IRD-CLB and 5-CLB were obtained (FIG. 9A) and the drug release rates were quantified by the half-lives (τ1/2).
A stock solution of IRD-CLB and 5-CLB in acetonitrile was added to PB 10 mmol buffer pH 7.4 at 25° C. and cell medium pH 7.4, which both contained 20% of acetonitrile. The absorbance of the resulted solutions at the maximum was 0.10±0.01, when measured in a 1-cm standard quartz cell. The solutions were incubated at 37° C. during 24 hours. In certain periods of time fluorescence spectrum was measured.

[2] = Spectral properties of RD, IRD-CLB and 5-CLB in PB and CM; type: physicochemical; details: for ΦF / λmaxAb / λmaxFl: 25° C.
Experimental: The spectral properties of the dye RD and its conjugates IRD-CLB and 5-CLB were measured at the concentrations (c) of 0.6 μM in 10 mM phosphate buffer pH 7.5 (PB) and cell medium pH 7.5 (CM), both containing 20% of acetonitrile (ACN) to improve solubility of the compounds.
Table 2 presents the absorption (λmaxAb) and emission (λmaxFl) maxima, extinction coefficients (ε) and fluorescence quantum yields (ΦF) of the RD dye and IRD-CLB and 5-CLB conjugates measured at 25° C. in 10 mM phosphate buffer pH 7.5 (PB) and cell medium pH 7.5 (CM).
as §1
Absorption spectra were recorded on a Jasco V-730 UV-Vis spectrophotometer and the fluorescence spectra were measured on Edinburgh FS5 spectrofluorometer. The absorption and fluorescence spectra and the quantum yields (ΦF) were measured in a 1-cm quartz cell at ˜0.5 μM dye concentrations in PB 10 mmol buffer pH 7.4 at 25° C. and cell medium pH 7.4. Excitation wavelength was 720 nm and 532 nm. The recorded fluorescence spectra were corrected using the wavelength-dependent instrument sensitivity coefficients. Absorption and emission maxima were measured with accuracy of ±0.3 nm and ±0.5 nm, respectively, and rounded. For the determination of the quantum yields, the integrated relative intensities were measured versus ICG™ in methanol as the reference (ΦF=0.043) and Cy3™ in PBS (ΦF=0.043). The absorbance values measured for the samples and the reference at the excitation wavelength were 0.04-0.06 measured in a 1-cm cell. The absolute quantum yields were calculated according to Equation 1.

Panc-1 = assay: XTT cytotoxicity assay, PANC-1; type: cell-based, human; details: PANC-1, 10 min at 37° C., up to 25 μM, washed, XTT at 24 hours
Experimental: Application of the 5-CLB conjugate equipped with targeting peptide OctA was studied in the TDD monitoring using PANC-1 cancer cell line that overexpress SSTR-2 and SSTR-5 receptors. Efficient delivery of 5-CLB by the conjugated OctA to PANC-1 was verified by the XTT assay. Cytotoxicity of 5-CLB was compared to that of CLB or OctA added separately. The compounds were incubated with cells for 10 min at 37° C. at concentrations up to 25 μM, and subsequently were washed out, and growth inhibition compared to naïve/native cells was assessed in 24 hours.
The cytotoxicity of the peptide-drug conjugates was determined by measuring the mitochondrial enzyme activity, using a commercial XTT assay kit. Panc-1 cell line was cultured in RPMI medium supplemented with 10% heat-inactivated Fetal Bo-vine Serum (FBS), 2 mM glutamine, 1% penicillin and strep-tomycin and cultured at 37° C. in a humidified incubator with 6% CO2. Cells cultures were initiated in microplate wells at a concentration of 2-4×10^4 and the cells were allowed to adhere for 24 hours. […] Absorbance in the wells were measured with a TECAN Infinite M200 ELISA reader at both 480 and 680 nm—the latter being the background absorbance. […]

[3] = Ratiometric fluorescence monitoring of CLB release from 5-CLB in PANC-1; type: cell-based; details: human, PANC-1 cells; PANC-1, 10 μM, 10 min incubation, NIR and Red channels; read-out: CLB cleavage half-life τ1/2
Experimental: The Fluorescent images were acquired by Photometrics CoolSNAP HQ2 camera mounted on an Olympus iX81 fluorescent microscope. For the Red channel a cube comprising a ET560/40x bandpass excitation filter, ET630/75m bandpass emission filter and T5851pxr dichroic filter was used. For the NIR channel a cube comprising a ET740/40x bandpass excitation filter, ET7801p long pass emission filter and T7701pxr dichroic filter was used. To monitor drug release, Panc-1 cell line was grown in six-well culture plates and then washed with PBS (pH 7.4) two times and then incubated 10 minutes with 5-CLB 10 μM solution in PBS (for better solubility PBS with 3% DMSO was used). After incubation, the samples washed thoroughly with PBS (pH 7.4) two times to remove excess conjugate and the fluorescence changes immediately measured by using fluorescent microscope. […]
The band intensities in a representative experiment were quantified by measurement of related fluorescence intensity for each image (via the “Measure” function) with Image J software.
PANC-1 were incubated for 10 minutes at 37° C. in PB with 5-CLB (10 μM) and increasing concentrations of Oct (xl, x3 and x10 molar excess) and both compounds were washed out. Fluorescence images were taken at 60 min after the incubation and fluorescence intensities remaining in the cells were measured. […]

[4] = Drug (Aza) release from Aza-Flu conjugates in PB, CM and 1.25% LH by time-dependent fluorescence spectra
[5] = cell medium (CM), in CM with 20% acetonitrile

half-life [4] | SMILES | Fluorescence of 5-CLB accumulated in the cells in presence of free Oct (SSTRs) | half-life ([1]; PB (10 mmol buffer), in PB with 20% acetonitrile) | half-life [1, 5] | half-life at 0.6 μM [1, 5] | ΦF ([2]; CM:ACN (4:1, v/v)) | λmaxAb ([2]; CM:ACN (4:1, v/v)) | λmaxFl ([2]; CM:ACN (4:1, v/v)) | emission when excited at 532 nm ([2]; PB and CM) | ΦF ([2]; PB:ACN (4:1, v/v)) | λmaxFl ([2]; PB:ACN (4:1, v/v)) | λmaxAb ([2]; PB:ACN (4:1, v/v), c=0.6 μM) | growth inhibition (Panc-1) | half-life at 10 μM [3]
 | C[C@@H](O)[C@H](NC(=O)[C@@H]1CSSC[C@H](NC(=O)[C@@H](Cc2ccccc2)NC(=O)CCCNC(=O)CCCCCN2/C(=C/C=C3\CCCC(/C=C/C4=[N+](C)c5ccccc5C4(C)C)=C3OC(=O)CCCc3ccc(N(CCCl)CCCl)cc3)C(C)(C)c3ccccc32)C(=O)N[C@@H](Cc2ccccc2)C(=O)N[C@H](Cc2c[nH]c3ccccc23)C(=O)N[C@@H](CCCCN)C(=O)N[C@@H]([C@@H](C)O)C(=O)N1)C(N)=O [5-CLB] | decreased proportionally to the Oct concentration | ~144 min | ~120 min | ~120 min | 5.9% | 787 nm | 805 nm | no detectable emission | 1.5% | 796 nm | 783 nm | dramatically higher growth inhibition compared to CLB or OctA | ~200 min
~108 min | COc1cc(C2c3[nH]c4ccccc4c3CC3COC(=O)N32)cc(OC)c1O/C=C/C(=O)Oc1ccc2c(c1)Oc1cc(OCC(=O)O)ccc1C21OC(=O)c2ccccc21 (stereo not drawn) [Aza-Flu-COOH, (E)-2-((3′-((3-(2,6-dimethoxy-4-(3-oxo-1,3,5,6,11,11a-hexahydrooxazolo[3′,4′:1,6]pyrido[3,4-b]indol-5-yl)phenoxy)acryloyl)oxy)-3-oxo-3H-spiro [isobenzofuran-1,9′-xanthen]-6′-yl)oxy) acetic acid] |  |  |  |  |  |  |  |  |  |  |  |  | 
